Results published in article PMC6051491, “Dynamic structure mediates halophilic adaptation of a DNA polymerase from the deep-sea brines of the Red Sea”.

Assays:
Experiment in all cases: SPR; 100 mM NaCl; SPR (Biacore T100, SA chip, steady state): 20 mM Tris-HCl pH 8.8, 10 mM (NH4)2SO4, 0.1% Triton X-100, 100 or 300 mM NaCl; temperature not stated
[1] = target: T1, KODBR3exo Pol (Thermococcus kodakarensis / BR3 chimera, UniProt P77933 1-130+A0A133VA65:160-367+329-406+767-851+1389-1671, internal_change); settings: protein: recombinant; label: 3' biotin on template (immobilized); primer pairs with template 3' end; 5' overhang 23 nt of template
T1 sequence: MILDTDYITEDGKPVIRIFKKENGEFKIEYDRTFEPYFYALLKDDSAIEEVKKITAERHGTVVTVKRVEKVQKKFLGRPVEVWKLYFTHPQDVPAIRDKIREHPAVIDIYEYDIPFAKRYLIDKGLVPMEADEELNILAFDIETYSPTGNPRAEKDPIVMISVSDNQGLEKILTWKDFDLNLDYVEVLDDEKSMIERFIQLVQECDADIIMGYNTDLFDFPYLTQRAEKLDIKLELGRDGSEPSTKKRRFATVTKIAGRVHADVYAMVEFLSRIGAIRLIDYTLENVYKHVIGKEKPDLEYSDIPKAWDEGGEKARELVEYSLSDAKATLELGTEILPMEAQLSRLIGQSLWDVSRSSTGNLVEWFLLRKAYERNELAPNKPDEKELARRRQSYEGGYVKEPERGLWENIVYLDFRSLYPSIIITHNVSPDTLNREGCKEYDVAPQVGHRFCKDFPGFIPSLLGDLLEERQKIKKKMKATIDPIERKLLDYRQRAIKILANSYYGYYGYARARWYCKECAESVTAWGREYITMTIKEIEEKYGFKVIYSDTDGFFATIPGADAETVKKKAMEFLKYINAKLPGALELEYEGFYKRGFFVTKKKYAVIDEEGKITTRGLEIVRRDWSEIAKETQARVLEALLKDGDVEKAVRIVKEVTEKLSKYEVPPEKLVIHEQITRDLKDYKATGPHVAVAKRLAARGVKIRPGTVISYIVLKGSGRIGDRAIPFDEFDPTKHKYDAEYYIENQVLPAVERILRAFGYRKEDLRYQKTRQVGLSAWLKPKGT

[2] = target: T2, KOD Pol WT (Thermococcus kodakarensis, UniProt P77933 1-406+767-851+1389-1671, internal_change); settings: protein: recombinant, tags: N-terminal His
T2 sequence: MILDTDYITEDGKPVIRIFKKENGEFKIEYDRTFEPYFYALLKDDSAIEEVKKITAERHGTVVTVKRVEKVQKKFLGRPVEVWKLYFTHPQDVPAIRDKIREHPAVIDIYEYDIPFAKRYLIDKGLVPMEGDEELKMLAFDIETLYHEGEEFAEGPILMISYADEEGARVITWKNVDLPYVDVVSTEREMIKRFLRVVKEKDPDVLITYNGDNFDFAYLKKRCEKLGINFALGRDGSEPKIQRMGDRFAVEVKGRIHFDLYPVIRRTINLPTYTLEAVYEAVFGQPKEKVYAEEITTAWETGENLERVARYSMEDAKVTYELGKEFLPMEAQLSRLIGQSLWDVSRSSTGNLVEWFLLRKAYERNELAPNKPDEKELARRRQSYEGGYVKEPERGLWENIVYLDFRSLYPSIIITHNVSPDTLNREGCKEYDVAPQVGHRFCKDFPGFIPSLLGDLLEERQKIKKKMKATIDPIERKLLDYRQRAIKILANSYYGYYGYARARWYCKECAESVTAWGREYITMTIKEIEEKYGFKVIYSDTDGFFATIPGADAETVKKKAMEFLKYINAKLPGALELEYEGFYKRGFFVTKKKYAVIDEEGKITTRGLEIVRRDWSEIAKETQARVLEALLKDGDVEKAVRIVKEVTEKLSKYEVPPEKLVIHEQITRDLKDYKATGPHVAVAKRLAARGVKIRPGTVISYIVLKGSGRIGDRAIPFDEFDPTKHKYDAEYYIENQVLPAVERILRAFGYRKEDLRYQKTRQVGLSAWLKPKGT

[3] = target: T3, KODBR3thumb Pol (Thermococcus kodakarensis / BR3 chimera, UniProt P77933 1-406+767-851+1389-1479+A0A133VA65:621-805, internal_change); settings: protein: recombinant; label: 3' biotin on template (immobilized); primer pairs with template 3' end; 5' overhang 23 nt of template
T3 sequence: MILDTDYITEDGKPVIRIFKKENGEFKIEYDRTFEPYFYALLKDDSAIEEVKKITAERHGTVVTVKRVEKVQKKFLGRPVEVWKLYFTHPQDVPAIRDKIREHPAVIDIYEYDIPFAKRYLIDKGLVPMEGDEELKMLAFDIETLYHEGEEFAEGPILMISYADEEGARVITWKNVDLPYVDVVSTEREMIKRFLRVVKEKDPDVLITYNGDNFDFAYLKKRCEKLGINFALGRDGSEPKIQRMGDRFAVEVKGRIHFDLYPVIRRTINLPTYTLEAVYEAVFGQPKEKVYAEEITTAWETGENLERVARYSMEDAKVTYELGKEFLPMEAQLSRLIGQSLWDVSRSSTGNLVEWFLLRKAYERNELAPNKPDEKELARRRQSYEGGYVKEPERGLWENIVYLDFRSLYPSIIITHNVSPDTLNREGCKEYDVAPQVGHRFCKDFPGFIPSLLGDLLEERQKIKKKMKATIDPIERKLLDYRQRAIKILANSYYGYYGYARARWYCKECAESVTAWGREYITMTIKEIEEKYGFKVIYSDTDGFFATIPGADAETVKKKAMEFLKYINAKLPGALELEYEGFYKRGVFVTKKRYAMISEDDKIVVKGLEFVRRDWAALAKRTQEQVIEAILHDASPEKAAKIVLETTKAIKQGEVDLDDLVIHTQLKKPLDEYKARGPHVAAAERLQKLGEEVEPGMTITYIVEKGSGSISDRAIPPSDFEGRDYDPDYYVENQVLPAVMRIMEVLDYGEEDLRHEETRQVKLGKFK

B1: primer/template (mixed)
DNA 1: GAGGTGGCGTCGGGTGGACGGGTGGATTGAAATTTAGGCTGGCAC
DNA 2: GTGCCAGCCTAAATTTCAATCC
- Kd [1]: 6.5 nM
- Kd ([2]; label: 3' biotin on template (immobilized), primer pairs with template 3' end, 5' overhang 23 nt of template): 3.5 nM
- Kd [3]: 12.5 nM

B2: dsDNA (dsDNA)
DNA 1: GAGGTGGCGTCGGGTGGACGGGTGGATTGAAATTTAGGCTGGCAC
DNA 2: GTGCCAGCCTAAATTTCAATCCACCCGTCCACCCGACGCCACCTC
- Kd ([2]; label: 3' biotin on strand 1 (immobilized), blunt): 239 nM

B3: ssDNA (ssDNA)
DNA: TTTTTTTTTTTTTTTTTTTTTTTTTTTTTTTTTTTTTTTT
- Kd ([2]; label: 5' biotin (immobilized)): 32.8 nM
